Paper PMC4808650
Read-outs that look alike come from different tables or passages of the source.

Columns and labels:
[1] = target: Chlamydomonas outer arm axonemal dynein, α and β HC complex from strain oda2-t-lc2-bccp (Chlamydomonas reinhardtii) (UniProt Q39565)
[2] = target: Chlamydomonas outer arm axonemal dynein, α and β HC complex from strain oda2-t-lc2-bccp (Chlamydomonas reinhardtii) (UniProt Q39565); remark: listed apart in the source

Sequence of UniProt Q39565 (Q39565 whole entry, looked up, one chain of several): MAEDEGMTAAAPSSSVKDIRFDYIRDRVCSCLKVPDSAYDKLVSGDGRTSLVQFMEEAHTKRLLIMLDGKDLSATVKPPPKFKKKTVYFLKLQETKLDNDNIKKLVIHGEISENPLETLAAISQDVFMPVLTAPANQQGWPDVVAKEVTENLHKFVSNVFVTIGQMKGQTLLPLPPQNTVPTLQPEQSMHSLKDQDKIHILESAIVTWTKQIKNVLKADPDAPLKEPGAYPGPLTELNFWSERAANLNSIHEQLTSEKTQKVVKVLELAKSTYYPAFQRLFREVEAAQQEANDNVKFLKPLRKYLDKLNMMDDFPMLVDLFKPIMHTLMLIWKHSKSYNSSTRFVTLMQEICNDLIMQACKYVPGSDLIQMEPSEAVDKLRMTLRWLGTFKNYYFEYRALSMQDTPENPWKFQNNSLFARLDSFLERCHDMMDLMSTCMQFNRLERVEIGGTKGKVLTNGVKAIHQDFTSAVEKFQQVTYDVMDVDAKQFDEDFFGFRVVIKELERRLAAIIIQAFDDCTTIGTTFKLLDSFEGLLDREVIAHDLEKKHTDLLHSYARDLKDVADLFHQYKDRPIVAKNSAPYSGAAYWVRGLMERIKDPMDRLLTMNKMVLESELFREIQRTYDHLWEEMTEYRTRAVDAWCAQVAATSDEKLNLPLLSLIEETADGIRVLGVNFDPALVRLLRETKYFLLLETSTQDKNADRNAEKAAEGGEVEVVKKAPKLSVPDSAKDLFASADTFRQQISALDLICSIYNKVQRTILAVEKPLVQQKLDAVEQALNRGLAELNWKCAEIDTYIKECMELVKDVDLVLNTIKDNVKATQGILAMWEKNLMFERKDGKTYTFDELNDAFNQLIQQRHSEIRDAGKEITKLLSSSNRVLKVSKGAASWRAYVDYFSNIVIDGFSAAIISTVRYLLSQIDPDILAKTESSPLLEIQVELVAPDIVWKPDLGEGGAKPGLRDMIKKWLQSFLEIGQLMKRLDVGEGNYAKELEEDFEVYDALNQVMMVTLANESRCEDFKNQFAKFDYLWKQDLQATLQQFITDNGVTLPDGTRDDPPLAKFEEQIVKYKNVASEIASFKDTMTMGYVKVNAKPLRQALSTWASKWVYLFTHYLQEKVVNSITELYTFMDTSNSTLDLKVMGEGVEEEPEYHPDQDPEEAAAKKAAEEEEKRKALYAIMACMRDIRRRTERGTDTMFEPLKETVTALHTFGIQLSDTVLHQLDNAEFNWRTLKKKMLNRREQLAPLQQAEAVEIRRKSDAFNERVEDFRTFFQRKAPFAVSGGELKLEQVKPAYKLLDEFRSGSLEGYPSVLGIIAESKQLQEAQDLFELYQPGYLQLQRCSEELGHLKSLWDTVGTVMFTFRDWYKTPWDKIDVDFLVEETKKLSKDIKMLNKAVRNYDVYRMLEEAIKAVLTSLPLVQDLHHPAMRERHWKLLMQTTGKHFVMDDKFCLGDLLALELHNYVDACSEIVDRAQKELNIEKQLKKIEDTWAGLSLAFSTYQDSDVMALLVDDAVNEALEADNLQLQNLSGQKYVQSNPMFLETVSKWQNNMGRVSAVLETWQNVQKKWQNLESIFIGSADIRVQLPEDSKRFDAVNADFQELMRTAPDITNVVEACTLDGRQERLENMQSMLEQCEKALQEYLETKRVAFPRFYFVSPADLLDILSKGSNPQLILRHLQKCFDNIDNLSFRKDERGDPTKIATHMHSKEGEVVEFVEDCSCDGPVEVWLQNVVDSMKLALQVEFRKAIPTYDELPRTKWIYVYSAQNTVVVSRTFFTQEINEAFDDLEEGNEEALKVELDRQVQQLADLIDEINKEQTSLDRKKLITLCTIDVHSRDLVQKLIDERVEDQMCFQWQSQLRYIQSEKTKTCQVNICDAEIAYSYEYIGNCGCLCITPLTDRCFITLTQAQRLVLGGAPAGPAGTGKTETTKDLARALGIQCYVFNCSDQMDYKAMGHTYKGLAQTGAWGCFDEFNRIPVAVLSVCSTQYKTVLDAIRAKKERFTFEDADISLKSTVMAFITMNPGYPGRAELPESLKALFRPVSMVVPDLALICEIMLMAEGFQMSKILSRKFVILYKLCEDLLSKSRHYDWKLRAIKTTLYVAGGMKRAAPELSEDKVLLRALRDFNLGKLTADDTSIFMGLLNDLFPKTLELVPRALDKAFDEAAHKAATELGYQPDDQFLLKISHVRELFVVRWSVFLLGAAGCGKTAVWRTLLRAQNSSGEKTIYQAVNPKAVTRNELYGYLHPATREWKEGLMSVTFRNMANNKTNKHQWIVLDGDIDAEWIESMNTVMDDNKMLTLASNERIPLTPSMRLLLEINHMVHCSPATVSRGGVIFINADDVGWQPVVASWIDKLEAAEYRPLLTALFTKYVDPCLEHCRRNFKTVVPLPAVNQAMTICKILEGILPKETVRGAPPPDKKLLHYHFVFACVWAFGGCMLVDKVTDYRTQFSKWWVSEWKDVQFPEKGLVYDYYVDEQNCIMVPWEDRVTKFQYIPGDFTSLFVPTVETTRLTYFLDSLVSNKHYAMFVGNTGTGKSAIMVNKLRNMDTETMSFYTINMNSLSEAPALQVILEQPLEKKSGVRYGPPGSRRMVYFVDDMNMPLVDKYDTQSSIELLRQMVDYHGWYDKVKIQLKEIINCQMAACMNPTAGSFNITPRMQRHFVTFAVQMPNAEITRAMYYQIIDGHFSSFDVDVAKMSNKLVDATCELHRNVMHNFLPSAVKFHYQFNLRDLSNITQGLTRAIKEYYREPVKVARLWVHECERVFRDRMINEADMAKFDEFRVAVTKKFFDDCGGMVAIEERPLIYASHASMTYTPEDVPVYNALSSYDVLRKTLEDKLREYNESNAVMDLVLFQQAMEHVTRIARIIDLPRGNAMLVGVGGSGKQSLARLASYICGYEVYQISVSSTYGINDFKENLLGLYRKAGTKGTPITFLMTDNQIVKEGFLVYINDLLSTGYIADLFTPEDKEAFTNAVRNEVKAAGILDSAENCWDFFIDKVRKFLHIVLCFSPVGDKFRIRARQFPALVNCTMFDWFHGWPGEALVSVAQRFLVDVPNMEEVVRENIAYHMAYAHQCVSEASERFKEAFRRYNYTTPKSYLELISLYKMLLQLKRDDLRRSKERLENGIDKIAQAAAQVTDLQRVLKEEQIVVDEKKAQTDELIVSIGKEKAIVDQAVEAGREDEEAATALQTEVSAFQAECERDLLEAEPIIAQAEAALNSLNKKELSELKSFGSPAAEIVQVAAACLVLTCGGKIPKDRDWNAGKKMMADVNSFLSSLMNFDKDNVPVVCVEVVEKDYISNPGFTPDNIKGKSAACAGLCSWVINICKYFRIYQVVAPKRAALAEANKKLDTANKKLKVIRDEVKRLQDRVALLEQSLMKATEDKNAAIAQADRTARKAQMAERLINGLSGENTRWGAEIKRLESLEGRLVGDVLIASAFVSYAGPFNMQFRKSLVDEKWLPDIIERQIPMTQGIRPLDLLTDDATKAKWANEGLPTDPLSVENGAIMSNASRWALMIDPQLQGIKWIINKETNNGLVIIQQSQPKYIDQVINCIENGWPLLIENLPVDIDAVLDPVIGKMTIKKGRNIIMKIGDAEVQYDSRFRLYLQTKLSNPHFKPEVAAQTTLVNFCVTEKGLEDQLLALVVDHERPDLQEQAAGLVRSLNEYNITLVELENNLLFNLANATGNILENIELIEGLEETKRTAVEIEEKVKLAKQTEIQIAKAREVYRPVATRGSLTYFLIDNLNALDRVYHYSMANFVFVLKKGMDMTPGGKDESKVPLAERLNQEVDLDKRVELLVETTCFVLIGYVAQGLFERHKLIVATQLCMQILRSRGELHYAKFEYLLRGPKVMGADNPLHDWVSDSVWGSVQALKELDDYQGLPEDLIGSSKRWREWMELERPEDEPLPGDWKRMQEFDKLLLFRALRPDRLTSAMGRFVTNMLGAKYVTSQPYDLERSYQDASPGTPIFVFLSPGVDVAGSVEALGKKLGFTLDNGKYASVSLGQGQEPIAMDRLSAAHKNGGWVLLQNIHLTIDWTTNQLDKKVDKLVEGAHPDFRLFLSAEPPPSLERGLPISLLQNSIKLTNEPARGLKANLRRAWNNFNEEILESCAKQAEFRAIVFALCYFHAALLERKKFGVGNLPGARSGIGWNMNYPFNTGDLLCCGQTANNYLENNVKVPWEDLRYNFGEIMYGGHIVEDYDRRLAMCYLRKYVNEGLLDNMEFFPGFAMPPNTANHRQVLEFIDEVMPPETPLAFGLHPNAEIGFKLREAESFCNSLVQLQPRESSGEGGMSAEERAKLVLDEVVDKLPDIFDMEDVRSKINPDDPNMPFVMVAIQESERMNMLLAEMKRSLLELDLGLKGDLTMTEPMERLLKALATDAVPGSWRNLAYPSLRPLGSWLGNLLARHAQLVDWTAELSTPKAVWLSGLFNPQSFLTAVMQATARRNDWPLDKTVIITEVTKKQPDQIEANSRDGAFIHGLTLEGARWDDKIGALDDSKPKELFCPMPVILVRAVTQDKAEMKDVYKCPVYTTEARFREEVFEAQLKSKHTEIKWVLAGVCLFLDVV

| Substance | vmax of microtubule gliding on dynein-coated slides (fit to Eq. 1) [1] | L0 of microtubule gliding (microtubule length at vmax/2) [2] | vmax of microtubule gliding on dynein-coated slides (fit to Eq. 1) [2] |
| --- | --- | --- | --- |
| α-βs-tubulin porcine microtubules (10 μg/mL subtilisin) (from UniProt P02550 1-451) (complex) | 1.93 μm/s |  |  |
| Chlamydomonas axonemal microtubules, untreated (complex) |  | 0.43 μm | 2.09 μm/s |
| αs-βs-tubulin porcine microtubules (200 μg/mL subtilisin) (complex) | 2.27 μm/s |  |  |
| Chlamydomonas axonemal microtubules from SIRT2-deacetylated tubulin (complex) |  | 0.39 μm | 1.66 μm/s |
| porcine brain microtubules, untreated (α-β-tubulin microtubules) (from UniProt P02550 1-451; P02554 1-445) (complex) | 1.7 μm/s |  |  |
